The values below come from patent publication US20240002540A1 (KEYMED BIOSCIENCES CHENGDU, published 2024).

For test [1], the target named is T1, human CD3 on T cells (Jurkat cells; human peripheral blood CD4+ and CD8+ T-cells) (human, UniProt P07766 23-207).
T1 construct: whole, on cells; the other chains of the complex are present on the cells; also called CD4T; CD4 + T
The test is described as follows: flow cytometry on human peripheral blood CD4+ T cells. For orientation: In flow cytometry, cells or beads pass a laser one at a time.

Test [2] addresses T1, human CD3 on T cells (Jurkat cells; …). Description: flow cytometry on human peripheral blood CD8+ T cells.
Test [3] has the same target. The test is described as follows: flow cytometry on Jurkat cells. As to the method: The cells were adjusted to 5×10^5 cells/mL with 4% calf serum, 100 μL/well was added to 96-well U-plate, 300 g was centrifuged to removed the supernatant, 100 μL/well of gradient diluted antibody (initial concentration: 1800 nM, 3-fold dilution, 10 gradients) was added and incubated at 4° C. for 60 min. […] 50 μL/well PI was added after washing once, incubated for 5 min, and detected with flow cytometer (BD C6).

Test [4] addresses T2, human BCMA on cells (human, UniProt Q02223 1-184).
T2 construct: whole, on cells; also called Human BCMA-CHO; CHO-hBCMA
T2 sequence (looked up): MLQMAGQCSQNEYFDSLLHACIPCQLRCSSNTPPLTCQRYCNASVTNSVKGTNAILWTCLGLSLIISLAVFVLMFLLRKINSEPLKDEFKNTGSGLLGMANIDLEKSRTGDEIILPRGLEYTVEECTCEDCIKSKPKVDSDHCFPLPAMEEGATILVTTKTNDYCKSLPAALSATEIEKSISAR
Description: flow cytometry on CHO-human BCMA cells. As to the method:
(§1) 50 μL/well Alexa Fluro647 labeled goat anti-human IgG Fc (1: 300 dilution) were added to the secondary antibody, incubated on ice for 20 min, added with 50 μL/well PI solution (1: 300) after washing once, incubated for 5 min, and flow cytometer was used to make detection.

Test [5] concerns the target T1, human CD3 on T cells (Jurkat cells; …). The test is described as follows: flow cytometry on human peripheral blood CD4+ T-cells. As to the method: (§2) Fresh human peripheral blood was taken and PBMC was isolated by Ficoll. Paque Plu (GE, 17-1440-03). PBMC was adjusted to 5×10⁵ cells/mL with 4% calf serum (Hyclone, SH30626.06), 100 μL/well was added to a 96-well U-plate, the supernatant was centrifuged off and 100 μL of gradient diluted antibody (with starting concentration of 1800 nM, 3-fold dilution, 10 gradients) was added to each well and incubated for 60 min at 4° C. 50 μL/well of Alexa Fluro647 labeled goat anti-human IgG Fc (1: 300 dilution) was added to the secondary antibody, with ice bath for 20 min, and 50 μL/well PI added after washing once, incubated for 5 min, and flow cytometer (BD C6) was used for detection. The control antibody REGN5458 was synthesized and prepared according to US20200024356.

Test [6] addresses T2, human BCMA on cells. Description: flow cytometry on NCI-H929 cells. How it is done: as §1
Test [7] deals with T2, human BCMA on cells. The test is described as follows: flow cytometry on RPMI-8226 cells. How it is done: as §1
Test [8] concerns the target T1, human CD3 on T cells (Jurkat cells; …). Description: flow cytometry on human peripheral blood CD8+ T-cells. How it is done:
as §2

The target in test [9] is T3, human CD3εγ-Fc heterodimer (human).
T3 construct: also called human CD3εγ protein; human CD3εγ recombinant protein
T3 chain 1: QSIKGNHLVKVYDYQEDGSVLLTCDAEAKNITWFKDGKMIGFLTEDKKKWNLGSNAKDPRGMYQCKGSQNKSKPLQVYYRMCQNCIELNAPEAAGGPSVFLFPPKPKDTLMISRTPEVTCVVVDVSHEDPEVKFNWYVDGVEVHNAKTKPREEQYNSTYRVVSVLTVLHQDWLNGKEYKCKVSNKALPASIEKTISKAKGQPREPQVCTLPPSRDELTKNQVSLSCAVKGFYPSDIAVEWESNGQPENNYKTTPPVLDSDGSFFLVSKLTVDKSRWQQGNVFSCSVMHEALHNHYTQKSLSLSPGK
T3 chain 2: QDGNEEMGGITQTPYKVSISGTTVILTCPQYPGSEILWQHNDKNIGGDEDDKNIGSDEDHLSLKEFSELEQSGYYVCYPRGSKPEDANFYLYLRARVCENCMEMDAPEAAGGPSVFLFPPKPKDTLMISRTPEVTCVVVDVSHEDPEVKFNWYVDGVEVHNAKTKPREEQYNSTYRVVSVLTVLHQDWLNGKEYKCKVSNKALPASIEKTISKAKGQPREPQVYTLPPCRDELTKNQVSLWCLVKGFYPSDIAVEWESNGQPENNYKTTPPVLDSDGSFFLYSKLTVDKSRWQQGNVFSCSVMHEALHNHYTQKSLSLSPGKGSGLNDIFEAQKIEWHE
The test is described as follows: SPR (Biacore T200), antigen amine-coupled to CM5 chip, antibody as analyte, 1:1 model. As to the method: (§3) 10 μg/mL human or cynomolgus monkey BCMA or CD3εγ recombinant antigen was bound to a CM5 chip (GE healthcare) by amino conjugating, while the amount of antigen bound was controlled to approximately 200 RU. After baseline plateau, gradient diluted antibodies (7 gradients of 2-fold dilutions from 10 μg/mL) were flowed through the chip at a flow rate of 30 μL/min for a binding time of 350 seconds and a dissociation time of 600 seconds. Kinetic constants were fitted using Biacore T200 evaluation software with a 1: 1 binding model.
A general note: SPR reads the build-up and loss of mass on a sensor chip optically.

Test [10] addresses cynomolgus monkey BCMA recombinant antigen (cynomolgus monkey, UniProt A0A2K5UD97 1-53). The description is as above. As to the method: as §3
In test [11] the target is T4, human BCMA recombinant antigen (human, UniProt Q02223 1-54, limits assumed).
T4 sequence (looked up): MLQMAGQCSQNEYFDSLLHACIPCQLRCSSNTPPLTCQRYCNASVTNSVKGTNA
Described as above. How it is done: as §3

Test [12] concerns the target T5, Cynomolgus monkey CD3εγ-Fc heterodimer (cynomolgus monkey).
T5 construct: also called cynomolgus monkey CD3εγ protein
T5 chain 1: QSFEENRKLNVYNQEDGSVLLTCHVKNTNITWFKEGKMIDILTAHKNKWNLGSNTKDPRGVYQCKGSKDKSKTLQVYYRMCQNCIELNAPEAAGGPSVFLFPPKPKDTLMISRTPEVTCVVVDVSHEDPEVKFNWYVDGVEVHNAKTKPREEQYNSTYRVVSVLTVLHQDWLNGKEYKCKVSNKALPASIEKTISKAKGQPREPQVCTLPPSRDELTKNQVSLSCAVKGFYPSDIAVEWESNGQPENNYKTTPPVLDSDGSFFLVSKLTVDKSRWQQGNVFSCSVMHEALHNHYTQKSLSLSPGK
T5 chain 2: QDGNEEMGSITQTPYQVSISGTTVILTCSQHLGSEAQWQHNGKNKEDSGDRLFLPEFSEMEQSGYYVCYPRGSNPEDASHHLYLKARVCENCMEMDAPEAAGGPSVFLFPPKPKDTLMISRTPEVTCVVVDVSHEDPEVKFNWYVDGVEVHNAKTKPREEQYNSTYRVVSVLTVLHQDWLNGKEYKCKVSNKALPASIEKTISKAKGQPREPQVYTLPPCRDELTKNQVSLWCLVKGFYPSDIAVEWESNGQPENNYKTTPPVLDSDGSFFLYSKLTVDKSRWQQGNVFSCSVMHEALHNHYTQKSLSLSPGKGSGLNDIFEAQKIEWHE
The test is described as above. How it is done:
as §3

For test [13], the target named is T5, Cynomolgus monkey CD3εγ-Fc heterodimer. Description: ELISA on coated cynomolgus monkey CD3εγ protein (panel 'Monkey CD3εγ dimer'). How it is done:
Human CD3εγ protein and cynomolgus monkey CD3εγ protein were coated separately overnight at 4° C. After blocking with 2% skim milk, different dilutions of CD3 antibody were added to each well and incubated for 1 hour. After the secondary antibody was developed by adding HPR-labeled goat anti-human IgG Fc and TMB solution, the reaction was stopped with concentrated sulfuric acid, and the absorbance was read at 450 nm.

Sequence of cynomolgus monkey BCMA recombinant antigen (A0A2K5UD97 entry or part of it): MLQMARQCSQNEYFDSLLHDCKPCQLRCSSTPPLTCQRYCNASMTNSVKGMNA

B1: REGN5458 (antibody, V domains shown)
VH: EVQLVESGGGLVQPGRSLRLSCAASGFTFDDYSMHWVRQAPGKGLEWVSGISWNSGSKGYADSVKGRFTISRDNAKNSLYLQMNSLRAEDTALYYCAKYGSGYGKFYHYGLDVWGQGTTVTVSS
VL: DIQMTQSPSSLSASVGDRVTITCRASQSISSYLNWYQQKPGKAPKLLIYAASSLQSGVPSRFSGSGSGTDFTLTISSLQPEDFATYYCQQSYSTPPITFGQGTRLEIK
As usually defined, the EC50 (read off the curve) is the concentration giving half of the maximal effect. For the molecule B1, the concentration giving a half-maximal response (EC50 (read off the curve)) in test [1] and in test [2] was roughly 10 nM each time.

B2: BCMA×CD3 κλ006 (bispecific antibody, human IgG4 S228P, kappa, lambda)
light 1: DIVLTQSPASLAVSPGQRATITCRASKSVTTSGYSYIHWYQKKPGQPPKLLIYLASDLEAGVPARFSGSGSGTDFTLTINPVEAEDTANYYCQHSRELPWTFGQGTKVEIKRTVAAPSVFIFPPSDEQLKSGTASVVCLLNNFYPREAKVQWKVDNALQSGNSQESVTEQDSKDSTYSLSSTLTLSKADYEKHKVYACEVTHQGLSSPVTKSFNRGEC
heavy 1: QVQLVQSGSELKKPGASVKVSCKASGYIFTNFGMNWVREAPGQGLEWMGWINTYTGEQIYADGFTGRFVFSLDTSASTAYLQISSLKAEDTAVYFCARGEIYYGYDVGFVYWGQGTLVTVSSASTKGPSVFPLAPCSRSTSESTAALGCLVKDYFPEPVTVSWNSGALTSGVHTFPAVLQSSGLYSLSSVVTVPSSSLGTKTYTCNVDHKPSNTKVDKRVESKYGPPCPPCPAPEFEGGPSVFLFPPKPKDTLMISRTPEVTCVVVDVSQEDPEVQFNWYVDGVEVHNAKTKPREEQFNSTYRVVSVLTVLHQDWLNGKEYKCKVSNKGLASSIEKTISKAKGQPREPQVCTLPPSQEEMTKNQVSLSCAVKGFYPSDIAVEWESNGQPENNYKTTPPVLDSDGSFFLVSKLTVDKSRWQEGNVFSCSVMHEALHNHYTQKSLSLSLGK
light 2: QAVVTQEPSLTVSPGGTVTLTCRSSTGAVTTSNYANWVQEKPGQAPRGLIGGTNKRAPWTPARFSGSLLGGKAALTITGAQAEDEAEYYCVLWYSNLWVFGGGTKLTVLGQPKAAPSVTLFPPSSEELQANKATLVCLISDFYPGAVTVAWKADSSPVKAGVETTTPSKQSNNKYAASSYLSLTPEQWKSHRSYSCQVTHEGSTVEKTVAPTECS
heavy 2: EVQLVESGGGLVQPGGSLRLSCAASGFTFNTYAMNWVRKAPGKGLEWVGRIRSKYNNYATYYADSVKDRFTISRDDSKNSLYLQMNSLKTEDTAVYYCVRHGNFGNSYVSWFAYWGQGTLVTVSSASTKGPSVFPLAPCSRSTSESTAALGCLVKDYFPEPVTVSWNSGALTSGVHTFPAVLQSSGLYSLSSVVTVPSSSLGTKTYTCNVDHKPSNTKVDKRVESKYGPPCPPCPAPEFEGGPSVFLFPPKPKDTLMISRTPEVTCVVVDVSQEDPEVQFNWYVDGVEVHNAKTKPREEQFNSTYRVVSVLTVLHQDWLNGKEYKCKVSNKGLASSIEKTISKAKGQPREPQVYTLPPCQEEMTKNQVSLWCLVKGFYPSDIAVEWESNGQPENNYKTTPPVLDSDGSFFLYSKLTVDKSRWQEGNVFSCSVMHEALHNHYTQKSLSLSLGK
A word on the EC50: it is the concentration at which the effect is half-maximal. What is called Kd is the constant that tells how readily two partners part at equilibrium. B2: the EC50 in test [3] came out at 56 nM; with human BCMA on cells [4] it was 16 nM; in test [5] it was 91 nM; in the test with human BCMA on cells [6] it was 32 nM; with human BCMA on cells [7], 19 nM; in [8] it was 93 nM. Moreover, the Kd in test [9] is 27 nM; in test [10], 0.1 nM; in test [11], 1.2 nM; in [12], 33 nM.

B3: aCD3-hVH9/VL2 (antibody, human IgG4, V domains shown)
VH: EVQLVESGGGLVQPGGSLRLSCAASGFTFNTYAMNWVRKAPGKGLEWVGRIRSKYNNYATYYADSVKDRFTISRDDSKNSLYLQMNSLKTEDTAVYYCVRHGNFGNSYVSWFAYWGQGTLVTVSS
VL: QAVVTQEPSLTVSPGGTVTLTCRSSTGAVTTSNYANWVQEKPGQAPRGLIGGTNKRAPWTPARFSGSLLGGKAALTLSGAQPEDEAEYYCALWYSNLWVFGGGTKLTVL
notes: also called humanized anti-CD3 antibody hVH9/VL2
Regarding B3, in test [13], the “EC50 (read off the curve)” value is roughly 0.04 ng/mL.

B4: aCD3-hVH9/VL5 (antibody, human IgG4, V domains shown)
VH: EVQLVESGGGLVQPGGSLRLSCAASGFTFNTYAMNWVRKAPGKGLEWVGRIRSKYNNYATYYADSVKDRFTISRDDSKNSLYLQMNSLKTEDTAVYYCVRHGNFGNSYVSWFAYWGQGTLVTVSS
VL: QAVVTQEPSLTVSPGGTVTLTCRSSTGAVTTSNYANWVQEKPGQAPRGLIGGTNKRAPWTPARFSGSLLGGKAALTITGAQAEDEAEYYCVLWYSNLWVFGGGTKLTVL
notes: also called humanized anti-CD3 antibody hVH9/VL5
Turning to B4, the concentration giving a half-maximal response (EC50 (read off the curve)) in test [13] was roughly 0.06 ng/mL.
